B1: IL-17RB extracellular domain (receptor, UniProt Q9NRM6 18-292, looked up)
chain: REPTVQCGSETGPSPEWMLQHDLIPGDLRDLRVEPVTTSVATGDYSILMNVSWVLRADASIRLLKATKICVTGKSNFQSYSCVRCNYTEAFQTQTRPSGGKWTFSYIGFPVELNTVYFIGAHNIPNANMNEDGPSMSVNFTSPGCLDHIMKYKKKCVKAGSLWDPNITACKKNEETVEVNFTTTPLGNRYMALIQHSTIIGFSQVFEPHQKKQTRASVVIPVTGDSEGATVQLTPYFPTCGSDCIRHKGTVVLCPQTGVPFPLDNNKSKPGGWLP
notes: extracellular domain; biotinylated when immobilised on the SPR chip
B3: IL-17RC extracellular domain (receptor, UniProt Q8NAC3 21-538, looked up)
chain: LERLVGPQDATHCSPVSLEPWGDEERLRVQFLAQQSLSLAPVTAATARTALSGLSGADGRREERGRGKSWVCLSLGGSGNTEPQKKGLSCRLWDSDILCLPGDIVPAPGPVLAPTHLQTELVLRCQKETDCDLCLRVAVHLAVHGHWEEPEDEEKFGGAADSGVEEPRNASLQAQVVLSFQAYPTARCVLLEVQVPAALVQFGQSVGSVVYDCFEAALGSEVRIWSYTQPRYEKELNHTQQLPDCRGLEVWNSIPSCWALPWLNVSADGDNVHLVLNVSEEQHFGLSLYWNQVQGPPKPRWHKNLTGPQIITLNHTDLVPCLCIQVWPLEPDSVRTNICPFREDPRAHQNLWQAARLQLLTLQSWLLDAPCSLPAEAALCWRAPGGDPCQPLVPPLSWENVTVDKVLEFPLLKGHPNLCVQVNSSEKLQLQECLWADSLGPLKDDVLLLETRGPQDNRSLCALEPSGCTSLPSKASTRAARLGEYLLQDLQSGQCLQLWDDDLGALWACPMDKYIHKR
notes: extracellular domain; biotinylated when immobilised

Key:
[1] = biological target: T1, preformed IL-17RB-IL-25 complex (IL-25 captured by immobilised IL-17RB) (UniProt Q9NRM6 18-292; Q9H293 33-177, biotin on the C-terminal BirA ligase tag); assay: SPR; second receptor injected over IL-25 captured on immobilised IL-17RB
T1 construct: extracellular domain;mature; One receptor with one cytokine dimer, assembled stepwise on the SPR chip; not shown: C-terminal BirA ligase tag
T1 sequence 1: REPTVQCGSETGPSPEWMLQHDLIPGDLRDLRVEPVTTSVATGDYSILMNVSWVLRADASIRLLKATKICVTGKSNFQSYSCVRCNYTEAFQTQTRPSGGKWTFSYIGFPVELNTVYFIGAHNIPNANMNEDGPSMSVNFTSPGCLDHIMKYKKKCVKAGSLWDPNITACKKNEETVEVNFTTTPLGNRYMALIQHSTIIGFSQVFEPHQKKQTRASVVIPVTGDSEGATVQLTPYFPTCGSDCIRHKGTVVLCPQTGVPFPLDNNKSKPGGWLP
T1 sequence 2: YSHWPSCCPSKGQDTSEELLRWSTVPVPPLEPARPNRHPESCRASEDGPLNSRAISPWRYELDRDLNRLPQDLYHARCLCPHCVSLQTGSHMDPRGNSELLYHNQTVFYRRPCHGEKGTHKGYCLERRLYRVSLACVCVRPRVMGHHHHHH
Method: (§1) To examiner whether IL-17RA may only specifically bind IL-25 once IL-25 is captured by IL-17RB, IL-17RB was immobilized on an SPR chip, IL-25 was passed over this chip and the affinity of IL-17RA for the IL-17RB-IL-25 complex was measured. […] At concentrations up to 50 μM, no interaction could be observed between IL-17RA and IL-25, or between the IL-17RB-IL-25 complex and a second IL-17RB molecule.
(§2) Binding affinities were calculated via surface plasmon resonance (SPR) on a Biacore® T100 (GE Healthcare). C-terminally biotinylated IL-17 receptors were coupled to immobilized streptavidin on either an SA or CM4-sensor chip (GE Healthcare). An irrelevant, biotinylated protein was captured at equivalent immobilization densities to control flow cells. To measure the second receptor binding interaction, the cytokine was first captured to the immobilized receptor, followed by the second receptor injection. Low coupling densities (200-400 RU) and excess cytokine concentrations were used to optimize the number of cytokine homodimers bound to a single receptor. The surface was regenerated using 3 M MgCl2 between each cycle. For kinetic experiments, a flow rate of 50 μl/min was used. Data was analyzed using Biacore® T100 evaluation software Version 2.0 (GE Healthcare). Affinities are reported as the mean of at least two independent experiments±the standard error of the mean (s.e.m.).

[2] = biological target: B1; assay: SPR, IL-25 captured on immobilised IL-17RB
Method: as §1, §2

[3] = biological target: T2, preformed IL-17RA-IL-17A complex (IL-17A captured by immobilised IL-17RA) (human, UniProt Q16552 24-155); assay: SPR, second receptor injected over IL-17A captured on immobilised IL-17RA
T2 construct: mature; One receptor with one cytokine dimer, assembled stepwise on the SPR chip; not shown: C-terminal BirA ligase tag
T2 sequence (Q16552 other isoform, or with tags, fused parts or gaps): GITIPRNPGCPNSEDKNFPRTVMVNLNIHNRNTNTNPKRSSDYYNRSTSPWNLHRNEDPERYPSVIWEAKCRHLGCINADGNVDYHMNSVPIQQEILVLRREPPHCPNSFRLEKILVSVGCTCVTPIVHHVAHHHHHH
Excerpt: (§3) This strategy involved immobilizing one receptor on a SPR chip at a low coupling density in order to minimize possible homo-dimerization (e.g. cross-linking) of the receptors on the chip. The dimeric IL-17 cytokine was then captured by this receptor so that each receptor would be bound to one dimeric IL-17 ligand, leaving an exposed and accessible second receptor-binding site. The second receptor was subsequently passed over the preformed receptor-cytokine complexes to measure the affinity of the second receptor-binding event. In this fashion, the complex was assembled in a stepwise manner and each of the binding affinities was measured (FIG. 3).
as §2, with “The surface was regenerated using 3 M MgCl2 between each cycle. For kinetic experiments, a flow rate of 50 μl/min was used.” left out, “Affinities are reported as the mean of at least two independent experiments±the standard error of the mean (s.e.m.).” left out

[4] = biological target: T3, preformed IL-17RC-IL-17A complex (IL-17A captured by immobilised IL-17RC) (UniProt Q8NAC3 21-538; Q16552 24-155, biotin on the C-terminal BirA ligase tag); assay: SPR, second receptor injected over IL-17A captured on immobilised IL-17RC
T3 construct: extracellular domain;mature; One receptor with one cytokine dimer, assembled stepwise on the SPR chip; also called existing IL-17RC-IL-17A complex; not shown: C-terminal BirA ligase tag
T3 sequence (Q16552 other isoform, or with tags, fused parts or gaps): as above
Excerpt: as §3
as §2, with “The surface was regenerated using 3 M MgCl2 between each cycle. For kinetic experiments, a flow rate of 50 μl/min was used.” left out, “Affinities are reported as the mean of at least two independent experiments±the standard error of the mean (s.e.m.).” left out

[5] = biological target: B3; assay: SPR, biotinylated receptor on streptavidin chip, cytokine injected
Method: as §2

B1
binding result [1]: no binding (tested: up to 50 µM)

B2: IL-25 (ligand)
chain: YSHWPSCCPSKGQDTSEELLRWSTVPVPPLEPARPNRHPESCRASEDGPLNSRAISPWRYELDRDLNRLPQDLYHARCLCPHCVSLQTGSHMDPRGNSELLYHNQTVFYRRPCHGEKGTHKGYCLERRLYRVSLACVCVRPRVMGHHHHHH
notes: mature; The form 'mature' is inferred from secretion; also called IL-17E
binding result [2]: binds

B3
Kd [3]: 174 nM | Kd [4]: 8000 nM

B4: IL-17F (ligand, human)
chain: RKIPKVGHTFFQKPESCPPVPGGSMKLDIGIINENQRVSMSRNIESRSTSPWNYTVTWDPNRYPSEVVQAQCRNLGCINAQGKEDISMNSVPIQQETLVVRRKHQGCSVSFQLEKVLVTVGCTCVTPVIHHVQHHHHHH
notes: mature; For the crystal the His tag was removed with carboxypeptidase A and the complex was lysine-methylated; For SPR the cytokine carried the C-terminal hexa-His tag; also called IL-17F homodimer
Kd [5]: 4.4 nM

— patent US20140105855A1 (published 2014)
